Results on one molecule are retold here after paper PMC2744266, “The Ataxia (ax ^J) Mutation Causes Abnormal GABAA Receptor Turnover in Mice” (PLoS Genetics, 2009).

For this assay, the target named is T1, GABAAR α1 subunit, full length, expressed in HEK293 cells (UniProt P62812 28-455).
T1 sequence (looked up): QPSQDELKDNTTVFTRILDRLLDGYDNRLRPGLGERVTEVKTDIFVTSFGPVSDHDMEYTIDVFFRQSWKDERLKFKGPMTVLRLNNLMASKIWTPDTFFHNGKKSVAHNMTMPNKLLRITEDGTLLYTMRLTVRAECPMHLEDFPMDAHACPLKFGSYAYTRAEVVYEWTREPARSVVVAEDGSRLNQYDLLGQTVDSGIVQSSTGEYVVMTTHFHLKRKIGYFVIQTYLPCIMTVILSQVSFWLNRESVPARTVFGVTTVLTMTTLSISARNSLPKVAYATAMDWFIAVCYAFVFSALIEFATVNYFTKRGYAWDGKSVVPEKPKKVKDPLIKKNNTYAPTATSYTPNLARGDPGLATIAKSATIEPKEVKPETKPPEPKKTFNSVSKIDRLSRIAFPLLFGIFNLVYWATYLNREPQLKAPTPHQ
As to the kind of experiment: cell-based or functional assay.

B1: Endogenous Usp14 protein derived from mouse brain lysates (enzyme, mouse (endogenous in brain), UniProt Q9JMA1 1-493, looked up)
chain: MPLYSVTVKWGKEKFEGVELNTDEPPMVFKAQLFALTGVQPARQKVMVKGGTLKDDDWGNIKMKNGMTVLMMGSADALPEEPSAKTVFVEDMTEEQLATAMELPCGLTNLGNTCYMNATVQCIRSVPELKDALKRYAGALRASGEMASAQYITAALRDLFDSMDKTSSSIPPIILLQFLHMAFPQFAEKGEQGQYLQQDANECWIQMMRVLQQKLEAIEDDSGRETDSSSAPAVTPSKKKSLIDQYFGVEFETTMKCTESEEEEVTKGKENQLQLSCFINQEVKYLFTGLKLRLQEEITKQSPTLQRNALYIKSSKISRLPAYLTIQMVRFFYKEKESVNAKVLKDVKFPLMLDVYELCTPELQEKMVSFRSKFKDLEDKKVNQQPNANDKNSPPKEIKYEPFSFADDIGSNNCGYYDLQAVLTHQGRSSSSGHYVSWVRRKQDEWIKFDDDKVSIVTPEDILRLSGGGDWHIAYVLLYGPRRVEIMEEESEQ
Regarding B1, the “GABAAR α1-GFP surface membrane levels (surface biotinylation, HEK293 cells expressing GABAAR α1-GFP and GABAAR β3) with the competing peptide mRFP-GABAAR α1(334–346) against mRFP” value is 2.5 fold.
